Test results from PMC3498381, “Isolated Toll-like Receptor Transmembrane Domains Are Capable of Oligomerization” (PLoS ONE, 2012).
Residue numbers refer to the chain shown, from its start. In names and notes the source's numbering stands. Several values for one entry are separate records, joined by “and”; a condition that tells them apart may be missing. Equal entries are not always repeated.

Columns and labels:
TLR2 G593A = experiment: homotypic ToxR assay; settings: higher signal = more homotypic TMD association; parent: est. 1.0; read off a plot
TMD5 D150A = experiment: homotypic ToxR assay; settings: higher signal = more homotypic TMD association; parent: est. 1.0; read off a plot
[1] = target: synthetic TLR6 transmembrane domain peptide, coumarin-labelled (human); experiment: AUC; sedimentation equilibrium; labelled peptide in density matched C14-betaine micelles (10 mM), 100 mM HEPES pH 7.4; FITC-TLR2 read at 495 nm, coumarin-TLR6 at 400 nm; for the heterotypic run FITC-TLR2 with 2 equiv. of coumarin-TLR6; global fit
[2] = target: synthetic TLR6 transmembrane domain peptide, coumarin-labelled (human); experiment: FRET or BRET; coumarin-TLR1 or -TLR6 peptide (donor) fixed at 20 nM, fluorescein-TLR2 peptide (acceptor) titrated 0-1500 nM; 1 mM C14-betaine micelles, 100 mM HEPES pH 7.4; excitation 415 nm; Hill equation
[3] = target: synthetic TLR1 transmembrane domain peptide, coumarin-labelled (human); experiment: as above
[4] = target: synthetic TLR2 transmembrane domain peptide, fluorescein-labelled (human); experiment: AUC; sedimentation equilibrium; labelled peptide in density matched C14-betaine micelles (10 mM), 100 mM HEPES pH 7.4; FITC-TLR2 read at 495 nm, coumarin-TLR6 at 400 nm; for the heterotypic run FITC-TLR2 with 2 equiv. of coumarin-TLR6; global fit
[5] = target: T1, TLR2 transmembrane domain C609I (ToxR chimera), O60603; experiment: homotypic ToxR assay; settings: chain shown with the change; higher signal = more homotypic TMD association; parent: est. 1.0; read off a plot
T1 chain: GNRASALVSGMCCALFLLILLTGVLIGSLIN

[6] = target: T2, TLR10 transmembrane domain (ToxR chimera); experiment: heterotypic ToxR assay; settings: chain shown with the change; competitor TLR10* (nonfunctional ToxR* chimera); PolyLeu* = 1.0; lower signal = more ToxR inhibition = more interaction; parent: est. 0.41; read off a plot
T2 chain: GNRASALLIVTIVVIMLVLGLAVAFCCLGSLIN

[7] = target: T3, TLR2 transmembrane domain (ToxR chimera); experiment: heterotypic ToxR assay; settings: chain shown with the change; competitor TLR2* (nonfunctional ToxR* chimera); PolyLeu* = 1.0; lower signal = more ToxR inhibition = more interaction; parent: est. 0.42; read off a plot
T3 chain: T1 chain with I26C

[8] = target: T4, TLR6 transmembrane domain (ToxR chimera); experiment: heterotypic ToxR assay; settings: chain shown with the change; competitor TLR6* (nonfunctional ToxR* chimera); PolyLeu* = 1.0; lower signal = more ToxR inhibition = more interaction; parent: est. 0.24; read off a plot
T4 chain: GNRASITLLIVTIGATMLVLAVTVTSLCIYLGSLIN

[9] = target: T5, TLR5 transmembrane domain (ToxR chimera); experiment: heterotypic ToxR assay; settings: chain shown with the change; competitor TLR5* (nonfunctional ToxR* chimera); PolyLeu* = 1.0; lower signal = more ToxR inhibition = more interaction; parent: est. 0.53; read off a plot
T5 chain: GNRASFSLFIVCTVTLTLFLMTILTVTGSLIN

[10] = target: T6, TLR1 transmembrane domain (ToxR chimera); experiment: heterotypic ToxR assay; settings: chain shown with the change; competitor TLR1* (nonfunctional ToxR* chimera); PolyLeu* = 1.0; lower signal = more ToxR inhibition = more interaction; parent: est. 0.47; read off a plot
T6 chain: T4 chain with G14V, I29S

[11] = target: T7, TLR4 transmembrane domain (ToxR chimera); experiment: heterotypic ToxR assay; settings: chain shown with the change; competitor TLR4* (nonfunctional ToxR* chimera); PolyLeu* = 1.0; lower signal = more ToxR inhibition = more interaction; parent: est. 0.90; read off a plot
T7 chain: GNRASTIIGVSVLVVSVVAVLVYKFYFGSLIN

## TLR2 transmembrane domain (ToxR chimera) G593A
TLR2 G593A
  response (normalized Miller units): 1.1

## TMD5 from latent membrane protein 1 (ToxR* chimera) D150A
TMD5 D150A
  response (normalized Miller units): 0.59

## synthetic TLR6 transmembrane domain peptide, coumarin-labelled
[1]
  stoichiometry N: 2

## synthetic TLR2 transmembrane domain peptide, fluorescein-labelled
[2]
  Kd: 0.287 µM
[3]
  Kd: 0.231 µM
[4]
  stoichiometry N: 2 and 4

## GNRASALVSGMCCALFLLILLTGVLIGSLIN [TLR2 transmembrane domain (ToxR chimera) C609I]
[5]
  response (normalized Miller units): 1.1
[6]
  response (normalized Miller units): 0.63
[7]
  response (normalized Miller units): 0.55
[8]
  response (normalized Miller units): 0.82
[9]
  response (normalized Miller units): 0.81
[10]
  response (normalized Miller units): 0.78
[11]
  response (normalized Miller units): 0.88
